Data on one substance can be found in article PMC11804575.

This test concerns the target heat shock protein 90 (HSP90) (UniProt P07900). The experiment in a line: co-immunoprecipitation (anti-HA) with immunoblot quantification (ImageJ). The settings on record: HEK293T cells; endogenous HSP90; n = 3; parent: est. 1.0; read off a plot. A general note: In western blotting, separated proteins are transferred to a membrane and probed.

Turning to “BRAF^V600E (from UniProt P15056) R509H; 621APE-AAE”, the response (HSP90/HA-BRAF normalized to V600E) was determined as 12.
